Results reported in publication PMC7110135, “Molecular flexibility of DNA as a key determinant of RAD51 recruitment”.

Tests used:
F86E RAD51 (human) = F86E RAD51 (human) (UniProt Q06609); test: SPR; Biotinylated ssDNA dT-50, dN-50, dA-50 and dsDNA dN-50p held on streptavidin-coated CM5 chips; F86E RAD51 injected at 30 uM; 37 C; same SPR running buffer with ATP and CaCl2. The protomer-protomer KD in solution is a single fit parameter of a simplified ODE polymerisation model, fitted to all four curves by ABC-SMC (n = 3).
RAD51 WT [1] = target: T1, RAD51 WT (Homo sapiens, UniProt Q06609 1-339); test: SPR; ATP, Ca2+; SPR (Biacore T200, streptavidin CM5): 150 mM KCl, 20 mM Hepes pH 7.5, 2 mM DTT, 5 mg/ml BSA, 2.5 mM ATP, 10 mM CaCl2, 10% glycerol, 37 C; settings: protein: recombinant, tags: untagged
RAD51 WT [2] = target: T1, RAD51 WT; test: SPR; 150 nM RAD51, 2.5 mM ATP, 10 mM Ca2+; faster association than dN-50p; SPR (Biacore T200, streptavidin CM5): 150 mM KCl, 20 mM Hepes pH 7.5, 2 mM DTT, 5 mg/ml BSA, 2.5 mM ATP, 10 mM CaCl2, 10% glycerol, 37 C; settings: protein: recombinant; tags: untagged; chain copies: 10; label: 5' Biotin (C6)
[3] = target: T2, human wild-type (WT) RAD51 (human), Q06609; test: SPR; Biotinylated ssDNA (dN-X) and dsDNA (dN-Xp) held on streptavidin-coated CM5 chips; WT RAD51 injected at 150 nM or 3 uM; 37 C; 150 mM KCl, 20 mM Hepes pH 7.5, 2 mM DTT, 5 mg/ml BSA, 2.5 mM ATP, 10 mM CaCl2, 10% glycerol. The protomer-protomer KD in solution is a single fit parameter of an ODE polymerisation model, fitted to all curves by ABC-SMC (n = 3).; settings: remark: other sources report otherwise
T2 chain: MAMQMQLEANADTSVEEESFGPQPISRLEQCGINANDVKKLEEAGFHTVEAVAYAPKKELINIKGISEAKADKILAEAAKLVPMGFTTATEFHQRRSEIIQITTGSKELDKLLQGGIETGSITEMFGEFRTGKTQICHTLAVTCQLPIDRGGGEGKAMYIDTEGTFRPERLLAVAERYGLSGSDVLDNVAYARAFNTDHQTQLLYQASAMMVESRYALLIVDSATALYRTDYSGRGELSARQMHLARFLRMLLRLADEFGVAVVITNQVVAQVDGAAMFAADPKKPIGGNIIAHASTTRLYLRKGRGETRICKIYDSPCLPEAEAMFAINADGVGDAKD

RAD51 WT [4] = target: T1, RAD51 WT; test: SPR; 3 uM RAD51, ATP, Ca2+; faster association, slower dissociation than dN-8p; SPR (Biacore T200, streptavidin CM5): 150 mM KCl, 20 mM Hepes pH 7.5, 2 mM DTT, 5 mg/ml BSA, 2.5 mM ATP, 10 mM CaCl2, 10% glycerol, 37 C; settings: protein: recombinant; tags: untagged; chain copies: 16; label: 3' Biotin-TEG on strand 2; hairpin, two strands joined by (HEG)2, blunt
RAD51 WT [5] = target: T1, RAD51 WT; test: SPR; 150 nM RAD51, 2.5 mM ATP, 10 mM Ca2+; slower association than dN-50, similar lifetime; SPR (Biacore T200, streptavidin CM5): 150 mM KCl, 20 mM Hepes pH 7.5, 2 mM DTT, 5 mg/ml BSA, 2.5 mM ATP, 10 mM CaCl2, 10% glycerol, 37 C; settings: protein: recombinant; tags: untagged; chain copies: 16; label: 5' Biotin (C6) on strand 1; blunt
RAD51 WT [6] = target: T1, RAD51 WT; test: SPR; ATP, Ca2+; faster association than dN-50; SPR (Biacore T200, streptavidin CM5): 150 mM KCl, 20 mM Hepes pH 7.5, 2 mM DTT, 5 mg/ml BSA, 2.5 mM ATP, 10 mM CaCl2, 10% glycerol, 37 C; settings: protein: recombinant; tags: untagged; chain copies: 10; label: 5' Biotin (C6)
RAD51 WT [7] = target: T1, RAD51 WT; test: SPR; 3 uM RAD51, ATP, Ca2+; slightly faster association, slow dissociation; SPR (Biacore T200, streptavidin CM5): 150 mM KCl, 20 mM Hepes pH 7.5, 2 mM DTT, 5 mg/ml BSA, 2.5 mM ATP, 10 mM CaCl2, 10% glycerol, 37 C; settings: protein: recombinant; tags: untagged; chain copies: 10; label: 3' Biotin-TEG
[8] = chain copies: 10, label: 3' Biotin-TEG

Q: How did the Kd (F86E RAD51 (human)) turn out when “F86E RAD51 (from UniProt Q06609 1-339) (natural protein)” was run?
A: 10.2 µM

Q: Does CGTCGATAGGC (ssDNA) [ssDNA dN-11] bind (RAD51 WT [1]; [8])?
A: no binding

Q: Does CTGACTGC (ssDNA) [ssDNA dN-8] bind (RAD51 WT [1]; [8])?
A: no binding

Q: Does CGGAC (ssDNA) [ssDNA dN-5] bind (RAD51 WT [1]; [8])?
A: no binding

B1: dsDNA dN-5p (dsDNA)
DNA 1: CGGAC
DNA 2: GTCCG
modifications: two hexaethylene glycol linkers join 3' end of strand 1 to 5' end of strand 2
Q: Does B1 bind (RAD51 WT [1]; chain copies: 16, label: 3' Biotin-TEG on strand 2, hairpin, two strands joined by (HEG)2, blunt)?
A: no binding

Q: Does TTGAGAGAGCAGACCACAATTATCACCTACACGACATCATTTTATATCAA (ssDNA) [ssDNA dN-50] bind (RAD51 WT [2])?
A: binds

B2: human wild-type (WT) RAD51, Q06609 1-339 (natural protein)
chain: MAMQMQLEANADTSVEEESFGPQPISRLEQCGINANDVKKLEEAGFHTVEAVAYAPKKELINIKGISEAKADKILAEAAKLVPMGFTTATEFHQRRSEIIQITTGSKELDKLLQGGIETGSITEMFGEFRTGKTQICHTLAVTCQLPIDRGGGEGKAMYIDTEGTFRPERLLAVAERYGLSGSDVLDNVAYARAFNTDHQTQLLYQASAMMVESRYALLIVDSATALYRTDYSGRGELSARQMHLARFLRMLLRLADEFGVAVVITNQVVAQVDGAAMFAADPKKPIGGNIIAHASTTRLYLRKGRGETRICKIYDSPCLPEAEAMFAINADGVGDAKD
Q: How did the Kd [3] turn out when B2 was run?
A: 0.00114 µM

B3: dsDNA dN-11p (dsDNA)
DNA 1: CGTCGATAGGC
DNA 2: GCCTATCGACG
modifications: two hexaethylene glycol linkers join 3' end of strand 1 to 5' end of strand 2
Q: Does B3 bind (RAD51 WT [4])?
A: binds

B4: dsDNA dN-50p (dsDNA)
DNA 1: TCGAGAGGGTAAACCACAATTATCGCCTACCCAAAACTATTTTATATCAA
DNA 2: TTGATATAAAATAGTTTTGGGTAGGCGATAATTGTGGTTTACCCTCTCGA
Q: Does B4 bind (RAD51 WT [5])?
A: binds

Q: Does TTTTTTTTTTTTTTTTTTTTTTTTTTTTTTTTTTTTTTTTTTTTTTTTTT (ssDNA) [ssDNA dT-50] bind (RAD51 WT [6])?
A: binds

Q: Does CGTCGATGAGCAGTGTC (ssDNA) [ssDNA dN-17] bind (RAD51 WT [7])?
A: binds
